The assay addresses HLA-A*02:01 (Homo sapiens, UniProt P04439, D140Y/D185E/D98H/E176V/E277Q/G131W/G231S/I119V/I121R/I166T/I218V/L300P/L318F/N151K/N90K/P208A/P217A/Q86G/Q94H/R138H/R169H/T345S). As to the kind of experiment: MHC binding assay (UV-ligand exchange, β2m ELISA, peptide exchange yield). The note with it: binding to HLA-A*02:01. In short, it runs like this:
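Peptide-HLA-A*02:01 complexes formed by UV-mediated exchange of a photocleavable ligand; exchange yield measured by streptavidin-capture ELISA detecting β2m with HRP anti-β2m, TMB read at 450 nm. Refolded monomer standards 15-500 ng/ml; samples diluted 100-fold.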

The record followed here is patent US11260115B1, “Peptides and combination of peptides for use in immunotherapy against CLL and other cancers” (immatics biotechnologies GmbH, priority 2015, dated 2022).

With “369 (RLLDLENSLLGL; listed as Homo sapiens) [compound 369]”, the “Peptide Exchange (MHC class I binding score, peptide exchange yield)” value (“Peptide Exchange” for short) is ““+++” (>50 = +++)”.
Next, “133 (YLLSGDISEA; listed as Homo sapiens) [compound 133]”: ““+++” (>50 = +++)”; “79 (GLQAKIQEA; listed as Homo sapiens) [compound 79]”: ““+++” (>50 = +++)”; “203 (ALLSSQLAL; listed as Homo sapiens) [compound 203]”: ““+++” (>50 = +++)”.
As to “215 (VMQDIVYKL; listed as Homo sapiens) [compound 215]”, the “Peptide Exchange” value is recorded as ““+++” (>50 = +++)”.
In the case of “299 (ILEENIPVL; listed as Homo sapiens) [compound 299]” it was ““+++” (>50 = +++)”; in that of “375 (VLWFKPVEL; listed as Homo sapiens) [compound 375]”, ““+++” (>50 = +++)”.
Take “162 (SMKDDLENV; listed as Homo sapiens) [compound 162]”: the “Peptide Exchange” value is on record as ““++” (>20% = ++)”.
Next, “361 (ILQEFESKL; listed as Homo sapiens) [compound 361]”: ““+++” (>50 = +++)”; “223 (ALWVSQPPEI; listed as Homo sapiens) [compound 223]”: ““+++” (>50 = +++)”; “116 (LLIGATMQV; listed as Homo sapiens) [compound 116]”: ““+++” (>50 = +++)”.
In the case of “123 (LLLAEAELLTL; listed as Homo sapiens) [compound 123]” it was ““++” (>20% = ++)”; in that of “158 (SLPEAPLDV; listed as Homo sapiens) [compound 158]”, ““+++” (>50 = +++)”; in that of “313 (LMADLEGLHL; listed as Homo sapiens) [compound 313]”, ““+++” (>50 = +++)”.
Next, “209 (ILQAELPSL; listed as Homo sapiens) [compound 209]”: ““+++” (>50 = +++)”; “130 (LLVLIPVYL; listed as Homo sapiens) [compound 130]”: ““+” (>10% = +)”.
For “7 (ALLERTGYTL; listed as Homo sapiens) [compound 7]”, the “Peptide Exchange” value was ““+++” (>50 = +++)”.
In the case of “351 (ALSEKLARL; listed as Homo sapiens) [compound 351]” it was ““+++” (>50 = +++)”; in that of “329 (VLMDGSVKL; listed as Homo sapiens) [compound 329]”, ““++++” (>75% = ++++)”.
With “267 (TLLDWQDSL; listed as Homo sapiens) [compound 267]”, the “Peptide Exchange” value is recorded as ““+++” (>50 = +++)”.
Next, “385 (YTIPLAIKL; listed as Homo sapiens) [compound 385]”: ““+++” (>50 = +++)”; “204 (GLLQINDKIAL; listed as Homo sapiens) [compound 204]”: ““+++” (>50 = +++)”; “34 (YLPYIFPNI; listed as Homo sapiens) [compound 34]”: ““+++” (>50 = +++)”.
Next, “76 (GLLRIIPYL; listed as Homo sapiens) [compound 76]”: ““+++” (>50 = +++)”; “336 (YMAVTTQEV; listed as Homo sapiens) [compound 336]”: ““++++” (>75% = ++++)”; “225 (ILQERELLPV; listed as Homo sapiens) [compound 225]”: ““+++” (>50 = +++)”.
Next, “95 (ILGYMAHEHKV; listed as Homo sapiens) [compound 95]”: ““++” (>20% = ++)”; “178 (VLFFNVQEV; listed as Homo sapiens) [compound 178]”: ““+++” (>50 = +++)”.
For “376 (VLYNQRVEEI; listed as Homo sapiens) [compound 376]”, the “Peptide Exchange” value was ““+++” (>50 = +++)”.
In the case of “230 (FLQDSKVIFV; listed as Homo sapiens) [compound 230]” it was ““+++” (>50 = +++)”; in that of “349 (ALATHILSL; listed as Homo sapiens) [compound 349]”, ““+++” (>50 = +++)”.
Next, “334 (YLLEEKIASL; listed as Homo sapiens) [compound 334]”: ““+++” (>50 = +++)”; “161 (SMDDGMINV; listed as Homo sapiens) [compound 161]”: ““+++” (>50 = +++)”.
For “105 (KLMNDIADI; listed as Homo sapiens) [compound 105]”, the “Peptide Exchange” value is given as ““++” (>20% = ++)”.
Take “104 (KLILLDTPLFL; listed as Homo sapiens) [compound 104]”: the “Peptide Exchange” value is ““+++” (>50 = +++)”.
Next, “52 (FLVETGFLHV; listed as Homo sapiens) [compound 52]”: ““++++” (>75% = ++++)”; “183 (VLMPTVYQQGV; listed as Homo sapiens) [compound 183]”: ““+++” (>50 = +++)”.
Turning to “117 (LLILENILL; listed as Homo sapiens) [compound 117]”, the “Peptide Exchange” value is on record as ““+++” (>50 = +++)”.
In the case of “1 (AIPPSFASIFL; listed as Homo sapiens) [compound 1]” it was ““+++” (>50 = +++)”.
Next, “210 (KLLVQDFFL; listed as Homo sapiens) [compound 210]”: ““+++” (>50 = +++)”; “19 (QVMEKLAAV; listed as Homo sapiens) [compound 19]”: ““+++” (>50 = +++)”.
In the case of “174 (VLAELPIIVV; listed as Homo sapiens) [compound 174]” it was ““+++” (>50 = +++)”; in that of “373 (TLLADQGEIRV; listed as Homo sapiens) [compound 373]”, ““++” (>20% = ++)”.
For the substance “141 (QILSEIVEA; listed as Homo sapiens) [compound 141]”, the “Peptide Exchange” value is reported as ““++” (>20% = ++)”.
Next, “358 (FLTDYLNDL; listed as Homo sapiens) [compound 358]”: ““+++” (>50 = +++)”; “352 (ALVFELHYV; listed as Homo sapiens) [compound 352]”: ““+++” (>50 = +++)”; “100 (ILNNEVFAI; listed as Homo sapiens) [compound 100]”: ““+++” (>50 = +++)”.
In the case of “91 (ILDLNTYNV; listed as Homo sapiens) [compound 91]” it was ““+++” (>50 = +++)”; in that of “251 (LLYDNVPGA; listed as Homo sapiens) [compound 251]”, ““+++” (>50 = +++)”.
In the case of “135 (MTAGFSTIAGSV; listed as Homo sapiens) [compound 135]”, the “Peptide Exchange” value is given as ““+” (>10% = +)”.
In the case of “216 (WLAGDVPAA; listed as Homo sapiens) [compound 216]” it was ““+++” (>50 = +++)”.
Next, “137 (NLIKTVIKL; listed as Homo sapiens) [compound 137]”: ““+++” (>50 = +++)”.
Next, “228 (FLGGLSPGV; listed as Homo sapiens) [compound 228]”: ““+++” (>50 = +++)”; “107 (ILYNLYDLL; listed as Homo sapiens) [compound 107]”: ““+++” (>50 = +++)”; “377 (VVDGTCVAV; listed as Homo sapiens) [compound 377]”: ““+++” (>50 = +++)”.
On to “219 (ALLNLLESA; listed as Homo sapiens) [compound 219]”, for which the “Peptide Exchange” value was ““+++” (>50 = +++)”.
For “128 (LLSEEEYHL; listed as Homo sapiens) [compound 128]”, the “Peptide Exchange” value was ““+++” (>50 = +++)”.
In the case of “248 (KTVEPPISQV; listed as Homo sapiens) [compound 248]” it was ““++” (>20% = ++)”.
Turning to “131 (LQALEVLKI; listed as Homo sapiens) [compound 131]”, the “Peptide Exchange” value is given as ““+” (>10% = +)”.
Regarding “4 (VIAELPPKVSV; listed as Homo sapiens) [compound 4]”, the “Peptide Exchange” value was ““+++” (>50 = +++)”.
Next, “196 (YLLLQTYVL; listed as Homo sapiens) [compound 196]”: ““+” (>10% = +)”; “24 (AMAGDVVYA; listed as Homo sapiens) [compound 24]”: ““+++” (>50 = +++)”.
